The record followed here is paper doi:10.1101/2025.09.14.676084, “A validated antibody toolbox for ALS research” (bioRxiv, 2025).

This test concerns the target T1, PFN1 (Homo sapiens (assumed; ALS risk gene …, UniProt P07737).
T1 construct: PFN1, the protein encoded by the ALS risk gene PFN1; Surmised: endogenous protein in the lysate of a human cell line, as in the YCharOS workflow; also called profilin-1 (protein encoded by the ALS risk gene PFN1)
As to the kind of experiment: immunoprecipitation, detected by immunoblot; the antibody was used to immunoprecipitate its target; counted as successful when the target protein was specifically enriched relative to the starting material, confirmed by immunoblot of the immunoprecipitated protein. Conditions: one partner purified.

T1 sequence (P07737 whole entry): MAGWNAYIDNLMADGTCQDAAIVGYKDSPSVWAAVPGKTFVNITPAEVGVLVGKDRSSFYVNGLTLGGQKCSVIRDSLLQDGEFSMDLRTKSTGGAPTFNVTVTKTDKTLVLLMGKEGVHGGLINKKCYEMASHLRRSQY

B1: scFv against PFN1 (recombinant single-chain variable fragment antibody generated by the Structural Genomics Consortium) (scFv, V domains shown)
VH: EVQLLESGGGLVQPGGSLRLSCAASGFTFYSSYMYWVRQAPGKGLEWVSSISGYGGYTYYADSVKGRFTISRDNSKNTLYLQMNSLRAEDTAVYYCARWDGYMDYWGQGTLVTVSS
VL: DIQMTQSPSSLSASVGDRVTITCRASQSISSYLNWYQQKPGKAPKLLIYAASSLQSGVPSRFSGSGSGTDFTLTISSLQPEDFATYYCQQYWDYGLPTFGQGTKLEIK
notes: selected by phage display against recombinant biotinylated antigen; plasmid deposited at Addgene (id not given); also called the scFv against PFN1; custom scFv antibody
Take B1: the binding result is listed as “binds”.
